Assay results taken from publication PMC10950897 (2024).

Molecular target: His6-p97 WT (human, UniProt P55072 1-806)
Experiment: SPR

His6-p97 WT, sequence (P55072 whole entry): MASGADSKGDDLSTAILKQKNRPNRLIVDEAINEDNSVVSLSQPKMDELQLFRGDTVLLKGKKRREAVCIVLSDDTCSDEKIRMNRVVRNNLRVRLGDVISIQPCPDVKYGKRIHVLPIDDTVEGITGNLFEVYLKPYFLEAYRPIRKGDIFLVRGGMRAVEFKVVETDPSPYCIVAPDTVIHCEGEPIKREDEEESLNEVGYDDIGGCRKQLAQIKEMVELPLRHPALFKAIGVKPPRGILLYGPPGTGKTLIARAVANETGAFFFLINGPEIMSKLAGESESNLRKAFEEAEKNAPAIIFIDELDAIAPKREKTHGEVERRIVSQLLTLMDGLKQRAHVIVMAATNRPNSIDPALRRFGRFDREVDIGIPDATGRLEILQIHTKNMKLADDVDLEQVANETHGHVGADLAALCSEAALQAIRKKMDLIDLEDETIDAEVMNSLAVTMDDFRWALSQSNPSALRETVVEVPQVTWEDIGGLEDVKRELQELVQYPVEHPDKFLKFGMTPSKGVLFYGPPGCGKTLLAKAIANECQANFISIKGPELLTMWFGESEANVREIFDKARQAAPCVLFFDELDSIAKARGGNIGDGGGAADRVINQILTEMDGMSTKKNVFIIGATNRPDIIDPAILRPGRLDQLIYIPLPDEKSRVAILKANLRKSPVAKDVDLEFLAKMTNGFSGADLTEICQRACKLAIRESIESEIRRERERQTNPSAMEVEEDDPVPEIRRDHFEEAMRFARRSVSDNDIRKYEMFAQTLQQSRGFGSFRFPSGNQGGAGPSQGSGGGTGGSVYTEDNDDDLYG

Kd: 10.9 nM
B1: Strep-HA-VCF1 WT (natural protein)
chain: not shown
